According to patent US10202469B2, “Sugar chain-attached linker, compound containing sugar chain-attached linker and physiologically active substance or salt thereof, and method for producing same” (Glytech, Inc., priority 2012, dated 2019):
Like-named read-outs stand apart in the source and are kept apart here.

How the values were obtained:
[1] = Tracing of hydrolysis behavior in aqueous solution by HPLC (hydrolysis half-life)
Procedure: […] A given amount of each solution was injected to HPLC at appropriate time intervals to trace the hydrolysis reaction. The relative starting material concentration was determined from an HPLC peak area corresponding to the starting material. The relative concentration of the starting material was plotted against incubation time. […] Also, the terminal half-life t1/2 of the starting material was calculated according to the expression t1/2=ln(2)/k (wherein k represents the slope of the linear plot).

[2] = Solubility (μM)
Procedure: (§1) After the centrifugation, the absorbance of the supernatant portion at 280 nm was measured in the microtube. From the obtained value, the concentration was calculated to determine solubility.

[3] = Solubility (μM); remark: listed apart in the source
Procedure: as §1

[4] = Solubility measurement in 0.1% aqueous acetic acid (AcOH) solution; settings: aqueous acetic acid solution (0.1% AcOH)
Procedure: as §1

[5] = Solubility measurement in water (absorbance of supernatant at 280 nm); settings: 25° C.
Procedure: as §1

[6] = system: cytotoxic T lymphocyte (CTL); settings: cited from earlier work
[7] = buffer, pH 4, Hydrolysis half-life, Acetate buffer solution (pH 4.0), 25° C.
[8] = buffer, pH 4, Hydrolysis half-life, Acetate buffer solution (pH 4.0), 37° C.
[9] = buffer, pH 7.4, Hydrolysis half-life, PBS (pH 7.4), 25° C.
[10] = buffer, pH 7.4, Hydrolysis half-life, PBS (pH 7.4), 37° C.

CC(=O)N[C@@H]1[C@@H](O)[C@H](O[C@@H]2O[C@H](CO)[C@@H](O[C@@H]3O[C@H](CO[C@H]4O[C@H](CO)[C@@H](O)[C@H](O)[C@@H]4O[C@@H]4O[C@H](CO)[C@@H](O[C@@H]5O[C@H](CO)[C@H](O)[C@H](O)[C@H]5O)[C@H](O)[C@H]4NC(C)=O)[C@@H](O)[C@H](O[C@H]4O[C@H](CO)[C@@H](O)[C@H](O)[C@@H]4O[C@@H]4O[C@H](CO)[C@@H](O[C@@H]5O[C@H](CO)[C@H](O)[C@H](O)[C@H]5O)[C@H](O)[C@H]4NC(C)=O)[C@@H]3O)[C@H](O)[C@H]2NC(C)=O)[C@@H](CO)O[C@H]1NC(=O)CSCC(NC(=O)c1ccc(COC(=O)[C@H](CC(C)C)NC(=O)[C@H](CC(C)C)NC(=O)[C@H](C)NC(=O)[C@H](CC(C)C)NC(=O)[C@H](CC(C)C)NC(=O)[C@H](CC(C)C)NC(=O)CNC(=O)[C@H](Cc2c[nH]c3ccccc23)NC(=O)[C@@H](N)CCCNC(=N)N)cc1)C(N)=O (stereo partly drawn) [compound 1]
Hydrolysis half-life ([1]; buffer, pH 4): >720 h
half-life ([1]; buffer, pH 4, Hydrolysis half-life): > 720 h
Hydrolysis half-life ([1]; buffer, pH 7.4): 146 h
half-life ([1]; buffer, pH 7.4, Hydrolysis half-life): 78 h
solubility at 15 min [2]: > 37000 µM
solubility at 15 min [3]: > 41000 µM

CC(=O)N[C@@H]1[C@@H](O)[C@H](O[C@@H]2O[C@H](CO)[C@@H](O[C@@H]3O[C@H](CO[C@H]4O[C@H](CO)[C@@H](O)[C@H](O)[C@@H]4O[C@@H]4O[C@H](CO)[C@@H](O[C@@H]5O[C@H](CO[C@]6(C(=O)O)C[C@H](O)[C@@H](NC(C)=O)[C@H]([C@H](O)[C@H](O)CO)O6)[C@H](O)[C@H](O)[C@H]5O)[C@H](O)[C@H]4NC(C)=O)[C@@H](O)[C@H](O[C@H]4O[C@H](CO)[C@@H](O)[C@H](O)[C@@H]4O[C@@H]4O[C@H](CO)[C@@H](O[C@@H]5O[C@H](CO[C@]6(C(=O)O)C[C@H](O)[C@@H](NC(C)=O)[C@H]([C@H](O)[C@H](O)CO)O6)[C@H](O)[C@H](O)[C@H]5O)[C@H](O)[C@H]4NC(C)=O)[C@@H]3O)[C@H](O)[C@H]2NC(C)=O)[C@@H](CO)O[C@H]1NC(=O)CSC[C@H](NC(=O)c1ccc(COC(=O)[C@H](CC(C)C)NC(=O)[C@H](CC(C)C)NC(=O)[C@H](C)NC(=O)[C@H](CC(C)C)NC(=O)[C@H](CC(C)C)NC(=O)[C@H](CC(C)C)NC(=O)CNC(=O)[C@H](Cc2c[nH]c3ccccc23)NC(=O)[C@@H](N)CCCNC(=N)N)cc1)C(N)=O [compound 8]
half-life [1, 7]: > 720 h
half-life [1, 8]: > 720 h
half-life [1, 9]: 121 h
half-life [1, 10]: 106 h
solubility at 15 min ([4]; Solubility (mg/mL)): ≥ 104 mg/mL
solubility at 15 min ([4]; Solubility (μM)): > 34000 µM
solubility at 15 min ([5]; Solubility (mg/mL)): ≥ 121 mg/mL
solubility at 15 min ([5]; Solubility (μM)): > 47000 µM

CC(C)C[C@H](NC(=O)[C@H](CC(C)C)NC(=O)[C@H](C)NC(=O)[C@H](CC(C)C)NC(=O)[C@H](CC(C)C)NC(=O)[C@H](CC(C)C)NC(=O)CNC(=O)[C@H](Cc1c[nH]c2ccccc12)NC(=O)[C@@H](N)CCCNC(=N)N)C(=O)O [compound 10]
Ability to induce cytotoxic T lymphocyte (CTL) [6]: exhibits the ability to induce cytotoxic T lymphocyte (CTL)

CC(=O)N[C@@H]1[C@@H](O)[C@H](O[C@@H]2O[C@H](CO)[C@@H](O[C@@H]3O[C@H](CO[C@H]4O[C@H](CO)[C@@H](O)[C@H](O)[C@@H]4O[C@@H]4O[C@H](CO)[C@@H](O[C@@H]5O[C@H](CO)[C@H](O)[C@H](O)[C@H]5O)[C@H](O)[C@H]4NC(C)=O)[C@@H](O)[C@H](O[C@H]4O[C@H](CO)[C@@H](O)[C@H](O)[C@@H]4O[C@@H]4O[C@H](CO)[C@@H](O[C@@H]5O[C@H](CO)[C@H](O)[C@H](O)[C@H]5O)[C@H](O)[C@H]4NC(C)=O)[C@@H]3O)[C@H](O)[C@H]2NC(C)=O)[C@@H](CO)O[C@H]1NC(=O)CSCCSC(=O)[C@H](CC(C)C)NC(=O)[C@H](CC(C)C)NC(=O)[C@H](C)NC(=O)[C@H](CC(C)C)NC(=O)[C@H](CC(C)C)NC(=O)[C@H](CC(C)C)NC(=O)CNC(=O)[C@H](Cc1c[nH]c2ccccc12)NC(=O)[C@@H](N)CCCNC(=N)N [compound 20]
half-life [1, 7]: > 720 h
half-life [1, 8]: 576 h
half-life ([1]; buffer, pH 7.4, Hydrolysis half-life, PBS (pH 7.4), 4° C.): 230 h
half-life [1, 9]: 120 h
half-life [1, 10]: 32 h
solubility at 15 min ([5]; Solubility (mg/mL)): ≥ 77.4 mg/mL
solubility at 15 min ([5]; Solubility (μM)): > 28000 µM

CC(=O)N[C@@H]1[C@@H](O)[C@H](O[C@@H]2O[C@H](CO)[C@@H](O[C@@H]3O[C@H](CO[C@H]4O[C@H](CO)[C@@H](O)[C@H](O)[C@@H]4O[C@@H]4O[C@H](CO)[C@@H](O[C@@H]5O[C@H](CO)[C@H](O)[C@H](O)[C@H]5O)[C@H](O)[C@H]4NC(C)=O)[C@@H](O)[C@H](O[C@H]4O[C@H](CO)[C@@H](O)[C@H](O)[C@@H]4O[C@@H]4O[C@H](CO)[C@@H](O[C@@H]5O[C@H](CO)[C@H](O)[C@H](O)[C@H]5O)[C@H](O)[C@H]4NC(C)=O)[C@@H]3O)[C@H](O)[C@H]2NC(C)=O)[C@@H](CO)O[C@H]1NC(=O)C[C@H](NC(=O)Cc1ccc(SC(=O)[C@H](CC(C)C)NC(=O)[C@H](CC(C)C)NC(=O)[C@H](C)NC(=O)[C@H](CC(C)C)NC(=O)[C@H](CC(C)C)NC(=O)[C@H](CC(C)C)NC(=O)CNC(=O)[C@H](Cc2c[nH]c3ccccc23)NC(=O)[C@@H](N)CCCNC(=N)N)cc1)C(=O)NCC(N)=O [compound 21]
half-life ([1]; PBS, pH 7.4, Hydrolysis half-life, PBS (pH 7.4), 4° C.): 66 h
half-life ([1]; PBS, pH 7.4, Hydrolysis half-life, PBS (pH 7.4), 25° C.): 25 h
half-life ([1]; PBS, pH 7.4, Hydrolysis half-life, PBS (pH 7.4), 37° C.): 4 h
half-life ([1]; acetate buffer solution, pH 4, Hydrolysis half-life, Acetate buffer solution (pH 4.0), 25° C.): 456 h
half-life ([1]; acetate buffer solution, pH 4, Hydrolysis half-life, Acetate buffer solution (pH 4.0), 37° C.): 240 h
Hydrolysis product found by HPLC analysis ([1]; after hydrolysis test in buffer solution): production of the unmodified HER2(8-16) peptide (compound 10) was confirmed
solubility at 15 min ([5]; water, Solubility (mg/mL)): ≥ 76.7 mg/mL
solubility at 15 min ([5]; water, Solubility (μM)): > 26000 µM
